Test: yeast display, Sf9 membrane polyspecificity reagent, FACS + sequencing; frameworks hold sequencing errors
In short: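 Nanobodies came from a synthetic yeast display library in Saccharomyces cerevisiae BJ5465, induced with galactose for 36–48 hours and stained for 1 hour at 4 °C with 10% biotinylated, detergent-solubilized Sf9 membrane reagent. Cells were enriched on streptavidin microbeads and then FACS-sorted, with low and high (top ~1%) gates set on anti-HA fluorescence for expression and streptavidin fluorescence for reagent binding. Each polyreactivity label reflects the gate a clone came from. Genes were amplified by colony PCR, sequenced by MiSeq 2 × 250 and filtered by CDR length.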

QVQLVESGGGLVQAGGSLRLSCAASGRIFGGYTMGWYRQAPGKERELVAAITGSGGRTYYADSVKGRFTISRDKAKNTVYLQMNSLKPDETAVYYCNTVYRYRYYWGQGTQVTVSS
polyreactivity (PSR sort gate): high polyreactivity

QVQLVESGGGLVQAGGSLRLSCAASGRIFGHYAMGWYRPAPGKERELVAAISTGGSTYYADSVKGRFTISRDNAKNTVYFQMNSLKPEDTAVYFCNKRPVRRKYDYWGQGTHVTVSS
polyreactivity (PSR sort gate): low polyreactivity

QVQLVESGGGLVQAGGSLRLSCAASGRIFGHYAMGWYRQAPGKERELVAAINWRGGSTYYADSVKGRFTISRDNAKNTVYLQMNSLKPEDTAVYYCAAANFRSYLSQTGPRAYYYWGQGTQVTVSS
polyreactivity (PSR sort gate): low polyreactivity

QVQLVESGGGLVQAGGSLRLSCAASGRIFGHYAMGWYRQAPGKERELVAAISQSGTNTYYADSVKGRFTISRDNAKNTVYLQMNSLKPEDTAVYYCAAKPPRRYQLMDYWGQGTKVTVSS
polyreactivity (PSR sort gate): high polyreactivity

QVQLVESGGGLVQAGGSLRLSCAASGRIFGHYVMGWYRQAPGKERELVAGISSGGITYYADSVKGRFTISRDNAKNTVYLQMNSLKPEDTAVYYCAARVYYVRGSDTMDYWGQGTQVTVSS
polyreactivity (PSR sort gate): low polyreactivity

QVQLVESGGGLVQAGGSLRLSCAASGRIFGINAMGCYRQAPGKERELVAAINWSGGSTYYADSVKGRFTISRDNAKNTVYLQMNSLKPEDTEVYYCAAQKYKRVGYWGQVTQVTVSS
polyreactivity (PSR sort gate): high polyreactivity

QVQLVESGGGLVQAGGSLRLSCAASGRIFGINAMGWYRQAPGKERELVAAINWSGGSTYYADSVKGRFTISRDNAKNTVYLQMNSLKPEDTAVYYCAAQKYKRVGYWGQGTQVTVSS
polyreactivity (PSR sort gate): high polyreactivity

QVQLVESGGGLVQAGGSLRLSCAASGRIFGINAMGWYRQAPGKERELVAAITSGVSTNYADSVKGRFTISRDNAKNTVYLQMNSLKPEDTAVYYCATRRNRSYDYWGQGTQVTVSS
polyreactivity (PSR sort gate): low polyreactivity

QVQLVESGGGLVQAGGSLRLSCAASGRIFGIYAMGWHRQAPGKERELVASITDGTITNYADSVKGRFTISRDNAKNTVYLQMNSLKPEDTAVYYCAAGTQAHAYVVRPIEMDYSGQGTQVTVSS
polyreactivity (PSR sort gate): low polyreactivity

QVQLVESGGGLVQAGGSLRLSCAASGRIFGIYAMGWYRQAPGKERELVADIDVSDGSTYYADSVKGRFTISRDNAKNTVYLQMNSLKPEDTAVYYCNAEDSSRWYDWYLHDYWGQGTQVTVSS
polyreactivity (PSR sort gate): high polyreactivity

QVQLVESGGGLVQAGGSLRLSCAASGRIFGIYAMGWYRQAPGKERELVATITDSDDSTYYADSVKGRFTISRDNAKNTVYLQMNSLKPEDTAVYYCAAADGIYARYFFSRFPRFDYWGQGTQVTVSS
polyreactivity (PSR sort gate): low polyreactivity

QVQLVESGGGLVQAGGSLRLSCAASGRIFGKNAMGWYRQAPGKERELVAAISANGGSTSYADSVKGRFTISRDNAKNTVYLQMNSLKPEDTAVYYCNVRRQLRGDYWGHGTQVTVSS
polyreactivity (PSR sort gate): high polyreactivity

QVQLVESGGGLVQAGGSLRLSCAASGRIFGKYAMGWYRQAPGKERELVAAITRRGGSTYYADSVKGRFTISRDNAKNTVYLQMNSLKPEDTAVYYCNAALTGYRVSPTRHRYDYWGQGTQVTVSS
polyreactivity (PSR sort gate): high polyreactivity

QVQLVESGGGLVQAGGSLRLSCAASGRIFGKYVMGWYRQAPGKERELVAAISRSGGSTSYADSVKGRFTISRDNAKNTVYLQMNSLKPEDTEVYYCAAGFLSGWWFAYDYWGQGTQVTVSS
polyreactivity (PSR sort gate): high polyreactivity

QVQLVESGGGLVQAGGSLRLSCAASGRIFGLNAMGWSRQAPGKERELVASITYSGGSTYYADSVKGRFTISRDNAKNTVYLQMNSLKPEDTAVYYCAARIIVDDVGTKYYYWGQGTQVTVSS
polyreactivity (PSR sort gate): high polyreactivity

QVQLVESGGGLVQAGGSLRLSCAASGRIFGLNAMGWYRQAPGKERELVAAIDQGDGITYYADSVKGRFTISRDNAKNTVYLQMNSLKPEDTAVYYCAAEVSYKEIYQYYWIYPAYNYWGQGTQVTVSS
polyreactivity (PSR sort gate): high polyreactivity

QVQLVESGGGLVQAGGSLRLSCAASGRIFGLYALGWYRPAPGKEREFVAAIRWIGGGTYYADSVKGRFTISRDHAKNTVYLQINSLKPEDTAVDSCNVVTWYYVFRPWEYDYWGQGTQVTVSS
polyreactivity (PSR sort gate): low polyreactivity

QVQLVESGGGLVQAGGSLRLSCAASGRIFGLYAMGWYRHAPGKEREFVAANNWDGGSTFYADSVKGRFTISRDNAKNTVYLQMNSLKPEDTAVYSCAADVYSYVSYSTYVSVFTYDYWGQGTQVTVSS
polyreactivity (PSR sort gate): low polyreactivity

QVQLVESGGGLVQAGGSLRLSCAASGRIFGLYAMGWYRQAPGKERELVAGITYSGGTTYYADSVKGRFTISRDNAKNTVYLQMNSLKPEDTAVYYCNKRWYYQYGKYGYWGQGTQVTVSS
polyreactivity (PSR sort gate): high polyreactivity

QVQLVESGGGLVQAGGSLRLSCAASGRIFGLYAMGWYRQAPGKERELVATITRRAGSTYYADSVKGRFTISRDNAKNTVYLQMNSLKPEDTAVYYCAARSWANYDYWGQGTQVTVSS
polyreactivity (PSR sort gate): high polyreactivity

QVQLVESGGGLVQAGGSLRLSCAASGRIFGLYTMGWYRQAPGKEREFVAGITYSAGRTYYADSVKGRFTISRDNAKNTVYLQMNSLKPEDTAVYYCAATRRWYPTKLYGYWGQVTQVTVSS
polyreactivity (PSR sort gate): high polyreactivity

QVQLVESGGGLVQAGGSLRLSCAASGRIFGNNAMAWYRQATGKESELVAGISRTGGSTYYADSVKGRFTISRDNAKNTVYLQMNSLKPEDTAVFYCAALVYSGRYASYGYWGQGTQVTVSS
polyreactivity (PSR sort gate): low polyreactivity

QVQLVESGGGLVQAGGSLRLSCAASGRIFGPYAMGWYRQAPGKERELVAAISQRGGTTYYADSVKGRFTISRDNAKNTVYLQMNSLKPEDTAVYYCAAKTYGWGQGTQVTVSS
polyreactivity (PSR sort gate): high polyreactivity

QVQLVESGGGLVQAGGSLRLSCAASGRIFGPYTMGWYRQAPAKEREFVAAITRRGGSTYYADSVKGRFTISRDNAKNTVYLQMNSLKPEDTAVYYCAAVGLKRSLGYSWGQGTQVTVSS
polyreactivity (PSR sort gate): low polyreactivity

QVQLVESGGGLVQAGGSLRLSCAASGRIFGPYTMGWYRQAPGKERELVATISYSGSTTYYADSVKGRFTISRDNAKNTVYLQMNSLKPEDTAVYYCNAQYYVFITFDYWGQGTQVTVSS
polyreactivity (PSR sort gate): high polyreactivity

QVQLVESGGGLVQAGGSLRLSCAASGRIFGQYAMGWYRQAPGKERELVAAITYSTGSTSYADSVKGRFTISRDNAKNTVYLQMNSLKPEDTAVYYCATRKPSVRGVIPTRNSYYYWGQGTQVTVSS
polyreactivity (PSR sort gate): high polyreactivity

QVQLVESGGGLVQAGGSLRLSCAASGRIFGRNAMGWSRQAPGKERELVASITSGGSTNYADSVKGRFTISRYNAKNTVYLQMNSLKPEDTAVYYCNARWTGSYTSTGFRRRFDYWGQGTQVTVSS
polyreactivity (PSR sort gate): high polyreactivity

QVQLVESGGGLVQAGGSLRLSCAASGRIFGRNAMGWYRQAPGKEREFVAAITSSGGNTYYADSVKGRFTISRDNAKNTVYLQMNSLKPEDTAVYYCAARGARYCTSDYWGQGTQVTVSS
polyreactivity (PSR sort gate): high polyreactivity

QVQLVESGGGLVQAGGSLRLSCAASGRIFGRNAMGWYRQAPGKERELVAAISRRSVSTYYADSVKGRFTISRDIAKNTVYLQMNSLKPEETAVYYCAARKSLTTPYGYWGQGTQVTVSS
polyreactivity (PSR sort gate): high polyreactivity

QVQLVESGGGLVQAGGSLRLSCAASGRIFGRNAMGWYRQAPGKERELVAAISSSGGTYYADSVKGRFTISRDNAKNTVYLQMNSLKPEDTAVYYCNARVRTQQRWVDYWGQGTQVTVSS
polyreactivity (PSR sort gate): high polyreactivity

QVQLVESGGGLVQAGGSLRLSCAASGRIFGRNAMGWYRQAPGKERELVAAISSSGGTYYADSVKGRFTISRDNAKNTVYLQMNSLKPEDTAVYYCTARVRTQQRWVDYWGQGTQVTVSS
polyreactivity (PSR sort gate): high polyreactivity

QVQLVESGGGLVQAGGSLRLSCAASGRIFGRNVMGWYRQAPGKERELVAAITTGGGSTYYADSVKGRFTISRDNAKNTVYLQMNSLKPEDTAVYYCATDRRHEYSSRRYYYWGQGTQVTVSS
polyreactivity (PSR sort gate): high polyreactivity

QVQLVESGGGLVQAGGSLRLSCAASGRIFGRYAMGRYRRAPGKESEFVAAIDGGGGRTYADSVKGRFTISRDNAKNTVYLQMNSLKPEDTAVYYCNAYVYSIHWGDLYWSEYDYWGQGTQVTVSS
polyreactivity (PSR sort gate): high polyreactivity

QVQLVESGGGLVQAGGSLRLSCAASGRIFGRYAMGWYIQAPGKERELVAAISRSGGITYYADSVKGRFTISRDNAKNTVYLQMNSLKPEDTAVYYCAAYRAGNSYYPRLNYWGQGTQVTVSS
polyreactivity (PSR sort gate): high polyreactivity

QVQLVESGGGLVQAGGSLRLSCAASGRIFGRYAMGWYRQAPGKEREFVAAISWRGGTTYYADSVKGRFTISRDNAKNTVYLQMNSLKPEDTAVYYCNARYQTGGYGYWGQGTQVTVSS
polyreactivity (PSR sort gate): high polyreactivity

QVQLVESGGGLVQAGGSLRLSCAASGRIFGRYAMGWYRQAPGKERELVAAISSRGSRTYYADSVKGRFTISRDNAKNTVYLQMNSLKPEDTAVYYCAATWLSNPSDYDYWGPGTQVTVSS
polyreactivity (PSR sort gate): high polyreactivity

QVQLVESGGGLVQAGGSLRLSCAASGRIFGRYAMGWYRQAPGKEREVVATITRNGGGTYADSVKGRFTISRDNAKNTVYLQMNSLKPEDTAVYYCAVDTAAAWERRGFDSWGQGTQVTVSS
polyreactivity (PSR sort gate): low polyreactivity

QVQLVESGGGLVQAGGSLRLSCAASGRIFGRYTMGWYRQAPGKERELVAAISARGGSTYYADSVKGRFTISRDNAKNTVYLQMNSLKPEDTAVYYCDAEYVVWYLDRFNYWGQGTQVTVSS
polyreactivity (PSR sort gate): high polyreactivity

QVQLVESGGGLVQAGGSLRLSCAASGRIFGRYVMGWYRQAPGKERELVARIRRNGGSTYYADSVKGRFTISRDNAKNTVYLQMNSLKPDDTAVYDCAAESYDTWRRYESWGQGTQVTVSS
polyreactivity (PSR sort gate): high polyreactivity

QVQLVESGGGLVQAGGSLRLSCAASGRIFGSYALGWYRQAPGKERELVAAISSGGSTSYADSVKGRFTISRDNAKNTVYLQMNSLKPEDTAVDYCNRLRLFRGRGDYWGQGTQVTVSS
polyreactivity (PSR sort gate): high polyreactivity

QVQLVESGGGLVQAGGSLRLSCAASGRIFGSYAMGWYRQAPGKERELVAVITKRGDSTYYADSVKGRFTISRDNAKNTVYLQMNSLKPEDTAVYYCNAGRVYYSNGYDYWGQGSQVTVSS
polyreactivity (PSR sort gate): low polyreactivity

QVQLVESGGGLVQAGGSLRLSCAASGRIFGSYTMGWYRQAPGKERELVAGISRRGGSTYYADSVKGRFTISRDNAKNTVYLQMNGLKPEDTAVYYCAAVSSVFSVRYDYWGQGTQVTVSS
polyreactivity (PSR sort gate): high polyreactivity

QVQLVESGGGLVQAGGSLRLSCAASGRIFGSYVMGWYRQAPGKERELVAAISYSGGRTYYADSVKGRFTISRDNAKNTVYLQMNSLKPEDTAVYYCAKESSGSRYQYYYWGQGTQVTVSS
polyreactivity (PSR sort gate): high polyreactivity
